Literature values, collected in PMC1562422.

Experiments:
[1] = biological target: IL2 receptor γ chain (Homo sapiens) (UniProt P31785)
[2] = biological target: IL2 receptor β chain (Homo sapiens) (UniProt P14784); experiment: SPR
[3] = biological target: IL2 receptor α chain (Homo sapiens) (UniProt P01589); experiment: ITC
[4] = biological target: IL2 receptor β chain (Homo sapiens) (UniProt P14784); experiment: ITC

UniProt P14784, sequence (P14784 27-240): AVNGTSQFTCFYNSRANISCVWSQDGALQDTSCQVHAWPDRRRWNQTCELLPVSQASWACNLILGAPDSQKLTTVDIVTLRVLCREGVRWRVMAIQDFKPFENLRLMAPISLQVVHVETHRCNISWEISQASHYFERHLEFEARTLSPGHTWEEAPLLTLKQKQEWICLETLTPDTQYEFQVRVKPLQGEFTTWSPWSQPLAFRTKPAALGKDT
IL2, sequence (P60568 21-153): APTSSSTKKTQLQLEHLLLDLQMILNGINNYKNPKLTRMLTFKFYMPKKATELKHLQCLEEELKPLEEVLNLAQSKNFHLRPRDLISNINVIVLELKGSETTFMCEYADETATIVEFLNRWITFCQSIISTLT
UniProt P31785, sequence (P31785 23-262): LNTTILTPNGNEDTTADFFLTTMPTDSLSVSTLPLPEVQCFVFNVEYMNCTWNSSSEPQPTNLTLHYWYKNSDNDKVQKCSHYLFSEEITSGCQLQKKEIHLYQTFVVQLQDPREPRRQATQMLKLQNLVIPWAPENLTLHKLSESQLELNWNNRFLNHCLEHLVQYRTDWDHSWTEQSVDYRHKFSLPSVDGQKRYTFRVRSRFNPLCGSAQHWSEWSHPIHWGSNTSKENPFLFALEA

Kd [1]	Kd [2]	Kd [3]	Kd [4]	Substance
> 700000 nM	450 nM	10 nM	144 nM	IL2 (from UniProt P60568)
			278 nM	IL2 receptor α chain (from UniProt P01589)
